According to paper PMC5013604:

What was measured:
[1] = cycloheximide chase, western blot, MDA-MB-231; conditions: glycan lost; control: wild type
[2] = western blot with GSK3β and β-TrCP overexpression; conditions: glycan lost; control: wild type (co-expressed)
[3] = PD-L1 IP, anti-K48 ubiquitin blot, with MG132; conditions: glycan lost; control: MG132 without tunicamycin

Substance	degradation_or_half_life, half_life [1]	expression_or_secretion [2]	other: ubiquitination [3]
PD-L1 (programmed death ligand-1, B7-H1): 4NQ	decreases	decreases	
PD-L1 (programmed death ligand-1, B7-H1): N35/3NQ	decreases		
PD-L1 (programmed death ligand-1, B7-H1): N35Q	no change		
PD-L1 (programmed death ligand-1, B7-H1): N192Q	decreases		
PD-L1 (programmed death ligand-1, B7-H1): N200Q	decreases		
PD-L1 (programmed death ligand-1, B7-H1): N219Q	decreases		
PD-L1 (programmed death ligand-1, B7-H1): tunicamycin			increases
